From patent US20140242080A1 (Hoffmann-La Roche, published 2014)

Tests used:
[1] = biological target: T1, human MCSP expressed on tumor cells (Colo-38, WM266-4, A375, MV-3, HCT-116) (human, UniProt Q6UVK1 30-2322); test: cell-based or functional assay
[2] = biological target: T1, human MCSP expressed on tumor cells …; test: cell-based or functional assay; remark: listed apart in the source
[3] = biological target: T2, human CD3 expressed on Jurkat cells (human, UniProt P07766 23-207); test: flow cytometry on Jurkat cells
T2 construct: CD3 complex on Jurkat T cells; also called CD3 on Jurkat cells; huCD3
Description: (§1) Binding of the different bispecific constructs to CD3 on Jurkat cells (ATCC #TIB-152), and the respective tumor antigen on target cells, was determined by FACS. Briefly, cells were harvested, counted and checked for viability. 0.15-0.2 million cells per well (in PBS containing 0.1% BSA; 90 μl) were plated in a round-bottom 96-well plate and incubated with the indicated concentration of the bispecific constructs and corresponding IgG controls (10 μl) for 30 min at 4° C. […] After the incubation, cells were centrifuged (5 min, 350×g), washed with 150 μl PBS containing 0.1% BSA, resuspended and incubated for further 30 min at 4° C. with 12 μl/well of a FITC- or PE-conjugated secondary antibody. Bound constructs were detected using a FACSCantoII (Software FACS Diva). The “(scFv)₂” molecule was detected using a FITC-conjugated anti-His antibody (Lucerna, #RHIS-45F-Z). For all other molecules, a FITC- or PE-conjugated AffiniPure F(ab′)2 Fragment goat anti-human IgG Fcγ Fragment Specific (Jackson Immuno Research Lab #109-096-098/working solution 1:20, or #109-116-170/working solution 1:80, respectively) was used. Cells were washed by addition of 120 μl/well PBS containing 0.1% BSA and centrifugation at 350×g for 5 min. A second washing step was performed with 150 μl/well PBS containing 0.1% BSA. […] EC50 values were calculated using the GraphPad Prism software.
As a control, the equivalent maximum concentration of the corresponding IgGs and the background staining due to the labeled 2ndary antibody (goat anti-human FITC-conjugated AffiniPure F(ab′)2 Fragment, FcγFragment-specific, Jackson Immuno Research Lab #109-096-098) were assessed as well.

[4] = biological target: T1, human MCSP expressed on tumor cells …; test: flow cytometry on WM266-4 cells
Description: as §1

[5] = biological target: T2, human CD3 expressed on Jurkat cells; test: flow cytometry on Jurkat cells, 50 nM
Description: as §1
(§2) In a first experiment, different bispecific constructs targeting human MCSP and human CD3 were analyzed by flow cytometry for binding to human CD3 expressed on Jurkat, human T cell leukaemia cells, or to human MCSP on Colo-38 human melanoma cells.

[6] = biological target: T1, human MCSP expressed on tumor cells …; test: flow cytometry on Colo-38 cells, 50 nM
Description: as §1, §2

HuFcγRIIIa-V158-K6H6 = biological target: T3, HuFcγRIIIa-V158-K6H6 (human, UniProt P08637 17-208, limits assumed); test: SPR Biacore T100, 25 C; receptor captured via anti-Penta His, construct as analyte; kinetic, one concentration (1000 nM)
T3 construct: His-tagged recombinant receptor captured by anti-Penta His antibody; also called human FcγRIIIa-V158; human FcγRIIIa
Description: For analyzing interaction of different Fc-variants with human FcγRIIIa-V158 and murine FcγRIV direct coupling of around 6,500 resonance units (RU) of the anti-Penta His antibody (Qiagen) is performed on a CM5 chip at pH 5.0 using the standard amine coupling kit (Biacore, Freiburg/Germany). HuFcγRIIIa-V158-K6H6 and muFcγRIV-aviHis-biotin are captured for 60 s at 4 and 10 nM respectively.
Constructs with different Fc-mutations are passed through the flow cells for 120 s at a concentration of 1000 nM with a flow rate of 30 μl/min. The dissociation is monitored for 220 s. Bulk refractive index differences are corrected for by subtracting the response obtained in a reference flow cell. […] Affinity for human FcγRIIIa-V158 and murine FcγRIV was determined for wild-type Fc using a concentration range from 500-4000 nM.

T2 sequence (P07766 23-207 limits assumed): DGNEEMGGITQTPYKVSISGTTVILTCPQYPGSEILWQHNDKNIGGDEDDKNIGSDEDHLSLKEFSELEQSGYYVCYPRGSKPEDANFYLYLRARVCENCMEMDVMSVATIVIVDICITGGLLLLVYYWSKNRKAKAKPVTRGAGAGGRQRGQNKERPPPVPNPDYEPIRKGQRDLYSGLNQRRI
T1 sequence (Q6UVK1 30-2322): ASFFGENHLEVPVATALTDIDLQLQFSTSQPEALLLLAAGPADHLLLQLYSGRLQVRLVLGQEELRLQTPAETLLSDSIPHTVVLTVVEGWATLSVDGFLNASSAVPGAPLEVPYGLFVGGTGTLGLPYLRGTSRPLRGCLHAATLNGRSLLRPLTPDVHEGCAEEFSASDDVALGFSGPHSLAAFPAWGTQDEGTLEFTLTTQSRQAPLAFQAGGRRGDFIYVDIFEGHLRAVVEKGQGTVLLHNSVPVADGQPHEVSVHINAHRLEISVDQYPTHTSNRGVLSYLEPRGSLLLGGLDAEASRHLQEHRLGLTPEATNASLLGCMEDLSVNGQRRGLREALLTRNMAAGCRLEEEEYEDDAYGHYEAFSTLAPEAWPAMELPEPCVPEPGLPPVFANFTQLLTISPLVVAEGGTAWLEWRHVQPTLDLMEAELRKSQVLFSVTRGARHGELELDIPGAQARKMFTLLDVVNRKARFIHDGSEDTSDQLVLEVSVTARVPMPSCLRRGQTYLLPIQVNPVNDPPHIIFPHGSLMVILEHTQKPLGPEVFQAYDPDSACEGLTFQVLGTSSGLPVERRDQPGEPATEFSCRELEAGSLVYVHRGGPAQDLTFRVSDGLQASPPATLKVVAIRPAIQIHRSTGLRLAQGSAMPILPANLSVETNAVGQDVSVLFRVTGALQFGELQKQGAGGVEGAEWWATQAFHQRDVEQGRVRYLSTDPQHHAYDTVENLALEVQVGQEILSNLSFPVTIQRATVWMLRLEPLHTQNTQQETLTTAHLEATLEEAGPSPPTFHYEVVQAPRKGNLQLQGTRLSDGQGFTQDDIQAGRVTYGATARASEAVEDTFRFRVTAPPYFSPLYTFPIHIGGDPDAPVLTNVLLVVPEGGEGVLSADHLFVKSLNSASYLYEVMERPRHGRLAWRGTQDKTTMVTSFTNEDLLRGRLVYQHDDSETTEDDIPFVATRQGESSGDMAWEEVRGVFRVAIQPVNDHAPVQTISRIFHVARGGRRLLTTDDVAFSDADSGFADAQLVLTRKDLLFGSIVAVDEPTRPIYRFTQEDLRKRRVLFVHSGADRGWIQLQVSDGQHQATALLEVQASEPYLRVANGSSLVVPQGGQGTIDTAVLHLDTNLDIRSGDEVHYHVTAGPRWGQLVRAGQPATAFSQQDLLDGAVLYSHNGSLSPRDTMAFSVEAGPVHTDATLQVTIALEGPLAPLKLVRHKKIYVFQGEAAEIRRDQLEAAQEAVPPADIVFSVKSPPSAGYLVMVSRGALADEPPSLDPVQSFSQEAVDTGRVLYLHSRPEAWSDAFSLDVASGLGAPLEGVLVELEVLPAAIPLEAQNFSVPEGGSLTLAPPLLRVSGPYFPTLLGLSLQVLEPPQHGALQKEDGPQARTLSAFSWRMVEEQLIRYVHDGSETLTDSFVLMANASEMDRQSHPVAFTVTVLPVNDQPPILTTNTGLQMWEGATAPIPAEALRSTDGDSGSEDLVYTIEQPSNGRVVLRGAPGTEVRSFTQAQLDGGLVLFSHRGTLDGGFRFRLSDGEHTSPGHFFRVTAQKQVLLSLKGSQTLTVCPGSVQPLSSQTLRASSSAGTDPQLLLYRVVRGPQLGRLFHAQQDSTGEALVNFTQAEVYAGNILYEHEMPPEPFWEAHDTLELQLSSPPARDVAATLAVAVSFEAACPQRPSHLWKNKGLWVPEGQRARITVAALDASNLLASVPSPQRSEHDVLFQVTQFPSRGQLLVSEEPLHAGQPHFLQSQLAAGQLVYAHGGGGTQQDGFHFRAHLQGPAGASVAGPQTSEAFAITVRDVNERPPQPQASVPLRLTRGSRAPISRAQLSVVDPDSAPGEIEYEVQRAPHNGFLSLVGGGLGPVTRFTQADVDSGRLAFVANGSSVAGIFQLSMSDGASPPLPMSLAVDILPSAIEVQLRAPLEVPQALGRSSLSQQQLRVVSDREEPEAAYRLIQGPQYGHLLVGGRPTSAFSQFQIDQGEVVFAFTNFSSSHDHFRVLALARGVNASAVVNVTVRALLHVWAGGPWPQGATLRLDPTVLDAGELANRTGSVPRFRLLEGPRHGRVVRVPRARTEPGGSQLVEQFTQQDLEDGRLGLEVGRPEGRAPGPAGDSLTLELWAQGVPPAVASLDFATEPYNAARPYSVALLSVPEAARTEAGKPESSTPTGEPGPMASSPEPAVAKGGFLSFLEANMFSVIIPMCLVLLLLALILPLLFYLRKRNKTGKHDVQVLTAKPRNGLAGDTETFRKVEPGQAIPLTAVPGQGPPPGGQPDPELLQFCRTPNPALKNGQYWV
T3 sequence (P08637 17-208 F176V limits assumed): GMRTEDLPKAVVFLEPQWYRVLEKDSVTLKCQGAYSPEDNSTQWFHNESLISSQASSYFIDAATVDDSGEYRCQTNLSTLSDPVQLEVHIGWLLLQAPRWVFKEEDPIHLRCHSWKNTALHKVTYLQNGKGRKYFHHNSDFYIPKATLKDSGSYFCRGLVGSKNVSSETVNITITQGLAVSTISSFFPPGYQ

B1: 2 + 1 IgG Crossfab; VH/VL exchange (LC007/V9) (anti-MCSP/anti-huCD3) (bispecific antibody)
chain 1: not shown
chain 2: DIVLTQSPSSLSASLGDRVTISCSASQGIRNYLNWYQQRPDGTVKLLIYYTSSLHSGVPSRFSGSGSGTDYSLTISNLEPEDIATYYCQQYSKLPWTFGGGTKLEIKRTVAAPSVFIFPPSDEQLKSGTASVVCLLNNFYPREAKVQWKVDNALQSGNSQESVTEQDSKDSTYSLSSTLTLSKADYEKHKVYACEVTHQGLSSPVTKSFNRGEC
chain 3: DIQMTQSPSSLSASVGDRVTITCRASQDIRNYLNWYQQKPGKAPKLLIYYTSRLESGVPSRFSGSGSGTDYTLTISSLQPEDFATYYCQQGNTLPWTFGQGTKVEIKSSASTKGPSVFPLAPSSKSTSGGTAALGCLVKDYFPEPVTVSWNSGALTSGVHTFPAVLQSSGLYSLSSVVTVPSSSLGTQTYICNVNHKPSNTKVDKKVEPKSCGGGGSGGGGSEVQLQESGPGLVKPSQSLSLTCSVTGYSITSGYYWNWIRQFPGNKLEWMGYITYDGSNNYNPSLKNRISITRDTSKNQFFLKLNSVTTEDTATYYCADFDYWGQGTTLTVSSASTKGPSVFPLAPSSKSTSGGTAALGCLVKDYFPEPVTVSWNSGALTSGVHTFPAVLQSSGLYSLSSVVTVPSSSLGTQTYICNVNHKPSNTKVDKKVEPKSCDKTHTCPPCPAPEAAGGPSVFLFPPKPKDTLMISRTPEVTCVVVDVSHEDPEVKFNWYVDGVEVHNAKTKPREEQYNSTYRVVSVLTVLHQDWLNGKEYKCKVSNKALGAPIEKTISKAKGQPREPQVCTLPPSRDELTKNQVSLSCAVKGFYPSDIAVEWESNGQPENNYKTTPPVLDSDGSFFLVSKLTVDKSRWQQGNVFSCSVMHEALHNHYTQKSLSLSPGK
chain 4: EVQLVESGGGLVQPGGSLRLSCAASGYSFTGYTMNWVRQAPGKGLEWVALINPYKGVSTYNQKFKDRFTISVDKSKNTAYLQMNSLRAEDTAVYYCARSGYYGDSDWYFDVWGQGTLVTVSSASVAAPSVFIFPPSDEQLKSGTASVVCLLNNFYPREAKVQWKVDNALQSGNSQESVTEQDSKDSTYSLSSTLTLSKADYEKHKVYACEVTHQGLSSPVTKSFNRGEC
notes: vectors second heavy chain:light chain:first heavy chain-heavy chain Crossfab:light chain Crossfab 1:2:1:1; also called 2+1 IgG Crossfab (V9)
- EC50 of T cell-mediated killing (LDH release), MV-3 cells, human PBMCs E:T 10:1, 21 h [1]: 0.0092 nM
- EC50 of T cell-mediated killing (LDH release), WM266-4 cells, human PBMCs E:T 10:1, 21 h [1]: 0.0331 nM
- EC50 [pM] of T cell-mediated killing (LDH release), MV-3 cells, human PBMCs E:T 10:1, about 24 h [2]: 10 pM
- EC50 [pM] of T cell-mediated killing (LDH release), WM266-4 cells, human PBMCs E:T 10:1, about 24 h [2]: 12.4 pM
- EC50 [3]: 1.66 nM
- EC50 [4]: 0.95 nM

B2: “1+1 IgG scFab, one armed” (anti-MCSP/anti-huCD3) (bispecific antibody)
chain 1: not shown
chain 2: not shown
chain 3: DIVLTQSPSSLSASLGDRVTISCSASQGIRNYLNWYQQRPDGTVKLLIYYTSSLHSGVPSRFSGSGSGTDYSLTISNLEPEDIATYYCQQYSKLPWTFGGGTKLEIKRTVAAPSVFIFPPSDEQLKSGTASVVCLLNNFYPREAKVQWKVDNALQSGNSQESVTEQDSKDSTYSLSSTLTLSKADYEKHKVYACEVTHQGLSSPVTKSFNRGEC
- binding result [5]: binds
- binding result [6]: binds

B3: 2 + 1 IgG Crossfab, inverted; CL/CH1 exchange (LC007/anti-CD3) (anti-MCSP/anti-huCD3) (bispecific antibody)
chain 1: DIVLTQSPSSLSASLGDRVTISCSASQGIRNYLNWYQQRPDGTVKLLIYYTSSLHSGVPSRFSGSGSGTDYSLTISNLEPEDIATYYCQQYSKLPWTFGGGTKLEIKRTVAAPSVFIFPPSDEQLKSGTASVVCLLNNFYPREAKVQWKVDNALQSGNSQESVTEQDSKDSTYSLSSTLTLSKADYEKHKVYACEVTHQGLSSPVTKSFNRGEC
chain 2: EVQLQESGPGLVKPSQSLSLTCSVTGYSITSGYYWNWIRQFPGNKLEWMGYITYDGSNNYNPSLKNRISITRDTSKNQFFLKLNSVTTEDTATYYCADFDYWGQGTTLTVSSASTKGPSVFPLAPSSKSTSGGTAALGCLVKDYFPEPVTVSWNSGALTSGVHTFPAVLQSSGLYSLSSVVTVPSSSLGTQTYICNVNHKPSNTKVDKKVEPKSCDKTHTCPPCPAPEAAGGPSVFLFPPKPKDTLMISRTPEVTCVVVDVSHEDPEVKFNWYVDGVEVHNAKTKPREEQYNSTYRVVSVLTVLHQDWLNGKEYKCKVSNKALGAPIEKTISKAKGQPREPQVCTLPPSRDELTKNQVSLSCAVKGFYPSDIAVEWESNGQPENNYKTTPPVLDSDGSFFLVSKLTVDKSRWQQGNVFSCSVMHEALHNHYTQKSLSLSPGK
chain 3: QAVVTQESALTTSPGETVTLTCRSSTGAVTTSNYANWVQEKPDHLFTGLIGGTNKRAPGVPARFSGSLIGDKAALTITGAQTEDEAIYFCALWYSNLWVFGGGTKLTVLSSASTKGPSVFPLAPSSKSTSGGTAALGCLVKDYFPEPVTVSWNSGALTSGVHTFPAVLQSSGLYSLSSVVTVPSSSLGTQTYICNVNHKPSNTKVDKKVEPKSC
chain 4: not shown
notes: also called 2+1 IgG Crossfab, inverted (anti-CD3)
- EC50 [pM] of T cell-mediated killing (LDH release), MV-3 cells, human PBMCs E:T 10:1, about 24 h [2]: 3 pM
- EC50 [pM] of T cell-mediated killing (LDH release), WM266-4 cells, human PBMCs E:T 10:1, about 24 h [2]: 7.1 pM
- EC50 [3]: 32 nM
- EC50 [4]: 3.4 nM

B4: “2+1 IgG scFab, LALA” (anti-MCSP/anti-huCD3) (bispecific antibody)
chain 1: DIVLTQSPSSLSASLGDRVTISCSASQGIRNYLNWYQQRPDGTVKLLIYYTSSLHSGVPSRFSGSGSGTDYSLTISNLEPEDIATYYCQQYSKLPWTFGGGTKLEIKRTVAAPSVFIFPPSDEQLKSGTASVVCLLNNFYPREAKVQWKVDNALQSGNSQESVTEQDSKDSTYSLSSTLTLSKADYEKHKVYACEVTHQGLSSPVTKSFNRGEC
chain 2: not shown
chain 3: EVQLQESGPGLVKPSQSLSLTCSVTGYSITSGYYWNWIRQFPGNKLEWMGYITYDGSNNYNPSLKNRISITRDTSKNQFFLKLNSVTTEDTATYYCADFDYWGQGTTLTVSSASTKGPSVFPLAPSSKSTSGGTAALGCLVKDYFPEPVTVSWNSGALTSGVHTFPAVLQSSGLYSLSSVVTVPSSSLGTQTYICNVNHKPSNTKVDKKVEPKSCDKTHTCPPCPAPEAAGGPSVFLFPPKPKDTLMISRTPEVTCVVVDVSHEDPEVKFNWYVDGVEVHNAKTKPREEQYNSTYRVVSVLTVLHQDWLNGKEYKCKVSNKALPAPIEKTISKAKGQPREPQVCTLPPSRDELTKNQVSLSCAVKGFYPSDIAVEWESNGQPENNYKTTPPVLDSDGSFFLVSKLTVDKSRWQQGNVFSCSVMHEALHNHYTQKSLSLSPGK
notes: Fc with L234A L235A; also called Fc-LALA; copies: 2 + 1 + 1
- binding result [5]: binds
- binding result [6]: binds
- Kd (HuFcγRIIIa-V158-K6H6): 2130 nM

B5: “1+1 IgG scFab, one armed inverted” (anti-MCSP/anti-huCD3) (bispecific antibody)
chain 1: DIVLTQSPSSLSASLGDRVTISCSASQGIRNYLNWYQQRPDGTVKLLIYYTSSLHSGVPSRFSGSGSGTDYSLTISNLEPEDIATYYCQQYSKLPWTFGGGTKLEIKRTVAAPSVFIFPPSDEQLKSGTASVVCLLNNFYPREAKVQWKVDNALQSGNSQESVTEQDSKDSTYSLSSTLTLSKADYEKHKVYACEVTHQGLSSPVTKSFNRGECSGGGSGGGSEGGGSEGGGSEGGGSEGGGSGGGSGEVQLQESGPGLVKPSQSLSLTCSVTGYSITSGYYWNWIRQFPGNKLEWMGYITYDGSNNYNPSLKNRISITRDTSKNQFFLKLNSVTTEDTATYYCADFDYWGQGTTLTVSSASTKGPSVFPLAPSSKSTSGGTAALGCLVKDYFPEPVTVSWNSGALTSGVHTFPAVLQSSGLYSLSSVVTVPSSSLGTQTYICNVNHKPSNTKVDKKVEPKSCDGGGGSGGGGSGAQDKTHTCPPCPAPEAAGGPSVFLFPPKPKDTLMISRTPEVTCVVVDVSHEDPEVKFNWYVDGVEVHNAKTKPREEQYNSTYRVVSVLTVLHQDWLNGKEYKCKVSNKALPAPIEKTISKAKGQPREPQVCTLPPSRDELTKNQVSLSCAVKGFYPSDIAVEWESNGQPENNYKTTPPVLDSDGSFFLVSKLTVDKSRWQQGNVFSCSVMHEALHNHYTQKSLSLSPGK
chain 2: not shown
chain 3: not shown
- binding result [5]: binds
- binding result [6]: binds
